Source: the supplement of paper PMC9170038

System: MS2 coat protein
Assay: apparent KD of MS2 coat protein; designed switch direction (-1 OFF switch, 1 ON switch): 1; higher = weaker reporter binding
In short: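 Apparent KD, taken as the median over clusters for each design, was obtained by curve-fitting normalised cluster fluorescence. Designed RNA switches had been transcribed on Illumina chips by stalled E. coli RNA polymerase and titrated with SNAP-549-labelled MS2 coat protein, doubling from 0.7 or 1.5 nM to 3 µM.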

[1] = input ligand: microRNA oligo, concentration not stated
[2] = Eterna round: R95, input ligand: FMN 200 uM
[3] = Eterna round: R95, input ligand: microRNA oligo, concentration not stated
[4] = Eterna round: R95, input ligand: none

Sequence | apparent KD of MS2 coat protein (input ligand: FMN 200 uM) | apparent KD of MS2 coat protein [1] | apparent KD of MS2 coat protein (input ligand: none) | apparent KD of MS2 coat protein [2] | apparent KD of MS2 coat protein [3] | apparent KD of MS2 coat protein [4]
AUGGUGCAGGUACAGGAUAUGUUGCUCGUAACAUGAGGAUCACCCAUGUACCUAUGAGAUUAAAUGCAGAAGGGUGCACACCACG [Quorra] (Eterna round: R96, puzzle: Same State 2) | 62.8 nM | 406 nM | 1260 nM | – | – | –
UGGUACAUGGGAGGAUAUCAUGCAAACAUGAGGAUCACCCAUGUAACCAUGGAGACAUGGAUAUAUGAGAAGGCCCAUGUACCU [JL SSNG1 3.51] (Eterna round: R96, puzzle: Same State NG 2) | 11 nM | 19.6 nM | 27.9 nM | – | – | –
GUGGUGAAUUAAGGAUAUCGAGUCUAGAUGUUAAACAUGAGGAUCACCCAUGUGGGUUGCGGUGUCGAGAAGGUAAUUUACGGG [salish99_SSNG2_r04_508] (Eterna round: R96, puzzle: Same State NG 2) | – | 52.6 nM | – | – | – | –
GUGCUCGUGUGAGGAUAUGCUGCCGGGUCGGCUGCAGAAGGUACUAUUAUACAUGAGGAUCACCCAUGUCGCUUUUCUCCGGUG [salish99_SSNG1_r04_918] (Eterna round: R96, puzzle: Same State NG 1) | – | 34.1 nM | – | – | – | –
UGGAUCUAGGCUUGCCUGGGUCCAUGCUGACAUGAGGAUCACCCAUGUGCAUCCUACAAGCUUUUUGCUUGUCUGUC (puzzle: Sensor for hsa-mir-208a) | – | – | – | 60.7 nM | 69.7 nM | 51 nM
GAGGGCGGAAACAACAUGAGGAUCACCCAUGUUGCCGAAAGGCAGGAUAUCCGGCGAAAGCAGAAGGAGAAGGGUCGAAAAGAA [AK SSNG3-V2-41] (Eterna round: R96, puzzle: Same State NG 3) | 20.7 nM | 20 nM | 24.1 nM | – | – | –
GGAGGACAUGAGGAUCACCCAUGUGGAUGGGCGCUAGGAUAUGCGAGAGGAGGGAGUGGAGCAGAAGGAGUGGGUU [JR_SS1_Sub043] (puzzle: Same State 1) | – | – | – | – | 50.3 nM | –
UUGCUCGUGUGAGGAUAUGCAGCCGUUUCGGCUGCAGAAGGUACUAUAAUACAUGAGGAUCACCCAUGUCUCUGUUGUUUAGUG [salish99_SSNG1_r04_928] (Eterna round: R96, puzzle: Same State NG 1) | 34 nM | 27.8 nM | 39.2 nM | – | – | –
CUGAGCAGUCAAGGAUAUCACGUCGAAUAGACGUGAGAAGGUGAUUAAUACAUGAGGAUCACCCAUGUAAUACAUGAAGCUCAG [SSNG1/11-A1] (Eterna round: R96, puzzle: Same State NG 1) | 25.6 nM | 33.5 nM | 46.6 nM | – | – | –
UAGAGAGGAAGCGAGGAUAUCGUGGGAGGAACAUGAGGAUCACCCAUGUGUGAUGUUGAGAGGAACGAGAAGGCGCAGGAAAGUA [JR_SS2_Sub078] (puzzle: Same State 2) | – | – | – | 83.3 nM | 83.1 nM | 143 nM
ACACCACAUGAGGAUCACCCAUGUGUCAAUAACACAGGAUAUCACCCGGAAUACACCGGGUGAGAAGGGUGACCGA [Gesois] (puzzle: Same State 1) | – | – | – | 158 nM | 30.1 nM | 25.4 nM
GAAAGCAACGGAGGAUAUUCGCGUACGUUGGACGAAGAAGGCCGACAUGAGGAUCACCCAUGUACGAAUCACGCCAUAGCAUUA [Eternabot solution 12] (Eterna round: R96, puzzle: Same State NG 1) | 23.9 nM | 16.4 nM | 19.7 nM | – | – | –
GAGUAGUUGAAAGGAUAUUGAUUAUUGUAGGAUCAAGAAGGUUCUAACAUGAGGAUCACCCAUGUAGGACUAUUCCUGUGUAUC [Parity 89 - Jieux - Same State NG 1] (Eterna round: R96, puzzle: Same State NG 1) | – | 8.63 nM | – | – | – | –
AUUAUUUGUGCAGGAUAUGAUUAACAUGAGGAUCACCCAUGUGGUGUUGUGAGUAAGGAGAGUGAUCAGAAGGGCAUUUUUUUU [JMF's solution 61] (Eterna round: R96, puzzle: Same State NG 2) | 590 nM | 476 nM | 478 nM | – | – | –
AUCUCUGUGCCGCAGGAUAUACCAACGGCUACAUGAGGAUCACCCAUGUCAUACCGUCGAAAAUGGUAGAAGGGUGUGCACGAGC [Leesmala] (puzzle: Same State 2) | – | – | – | 16.4 nM | 45.5 nM | 61.3 nM
AGUCCAGCCAGAGCUGGACAAAAGCAUGUACAUGAGGAUCACCCAUGUCAUGUACAAGCUUUUUGCUCGUCUUAAAA [Mat - hsa-mir-208a - Mod of JL - D2] (puzzle: Sensor for hsa-mir-208a) | – | – | – | 415 nM | 13.7 nM | 523 nM
GUUACAUGAGGAUCACCCAUGUGUGUGUGGGAGUGAGUGGCUUAGGAUAUCUAUGAUUUAAGUUAAGAGAAGGGAGAUUGUUGU [SS-NG3-LRO04] (Eterna round: R96, puzzle: Same State NG 3) | 441 nM | 330 nM | 344 nM | – | – | –
GGCGAACAGGCUAACAUGAGGAUCACCCAUGUGGACUUCGUGUAGGAUAUCGGGAAGGAGGAAACCGAGAAGGGCGAAGAAGCC [AK SSNG3-V2-49.1] (Eterna round: R96, puzzle: Same State NG 3) | 55.2 nM | 48.1 nM | 55.1 nM | – | – | –
UAUUUAAUCAUAGGAUAUAGAGUGAAAUUUGGACUAGAAGGAUGUAACAUGAGGAUCACCCAUGUGGUAAGUGGGACACAGUGU [JR_SSNG1_Sub094] (Eterna round: R96, puzzle: Same State NG 1) | 206 nM | 85.5 nM | 129 nM | – | – | –
GGAGACAGAGCAGGAUAUGCUCCGAGUAACGAAGCAGAAGGGUUCGUAAAUCGUCGACAUGAGGAUCACCCAUGUGACCUAGUA [Eternabot solution 18] (Eterna round: R96, puzzle: Same State NG 1) | 20.7 nM | 18.4 nM | 24.7 nM | – | – | –
AGAAAACAUGAGGAUCACCCAUGUAUAGUGAAUACAGGAUAUCACCAACGGAAUAGUCGGUGAGAAGGGUGAUCGC [Zaxelate] (puzzle: Same State 1) | – | – | – | 18.5 nM | 11.3 nM | 14.2 nM
AUUAAACAUGAGGAUCACCCAUGUCAACAAAGUCGAGGAUAUGGGCAAAUAAAAUAAGUACCAGAAGGCGAAUAAU [salish99_ss1_r3_066] (Eterna round: R96, puzzle: Same State 1) | 21.4 nM | 66.1 nM | 103 nM | – | – | –
CCGGAUAAUGGAGGAUAUGGAGCCUUAUUGGCUCCAGAAGGCUAACAUGAGGAUCACCCAUGUUUUCCGGCGGUCAAUAGACCG [Eli NG1ss - 63] (Eterna round: R96, puzzle: Same State NG 1) | 10 nM | 11.4 nM | 18.2 nM | – | – | –
GUAGCAUACCGAGGAUAUUCAUAUUAUAACAUGAGGAUCACCCAUGUAGGCCGAUUACGGCCUUGGGAGAAGGCGGAAUGCUAC [Xeonanis - 20 Mod19] (Eterna round: R96, puzzle: Same State NG 2) | 27.9 nM | 229 nM | 342 nM | – | – | –
